Measurements: the supplement of paper PMC9233669
This sample holds only a part of the variants without activity.

Legend:
biotinyl-Trp-oxazolone = assay: self-aminoacylation, catalytic enhancement (BWO) (fold over background); higher = more active; k-Seq, kA / k0A0; sequences stand for … in GGGAAUGGAUCCACAUCUACGAAUUC…UUCACUGCAGACUUGACGAAGCUG
Summary of the method: (§1)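 Catalytic enhancement equals the median kA over the uncatalyzed rate, the latter read from the low-activity peak of a bimodal Gaussian fit. Values of kA came from fitting each sequence's fraction reacted to a pseudo-first-order model, with 1000 bootstraps. Reacted RNA was captured with streptavidin and quantified by triplicate qPCR and Illumina sequencing after 90 minutes at room temperature with 2–1250 μM biotinyl-aminoacyl-oxazolone and 0.43 μM mutagenized RNA pools bearing a 21-nt variable region.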

biotinyl-Val-oxazolone = assay: self-aminoacylation, catalytic enhancement (BVO) (fold over background); higher = more active; k-Seq, kA / k0A0; sequences stand for … in GGGAAUGGAUCCACAUCUACGAAUUC…UUCACUGCAGACUUGACGAAGCUG
Summary of the method: as §1

biotinyl-Phe-oxazolone = assay: self-aminoacylation, catalytic enhancement (BFO) (fold over background); higher = more active; k-Seq, kA / k0A0; sequences stand for … in GGGAAUGGAUCCACAUCUACGAAUUC…UUCACUGCAGACUUGACGAAGCUG
Summary of the method: as §1

biotinyl-Leu-oxazolone = assay: self-aminoacylation, catalytic enhancement (BLO) (fold over background); higher = more active; k-Seq, kA / k0A0; sequences stand for … in GGGAAUGGAUCCACAUCUACGAAUUC…UUCACUGCAGACUUGACGAAGCUG
Summary of the method: as §1

biotinyl-Ile-oxazolone = assay: self-aminoacylation, catalytic enhancement (BIO) (fold over background); higher = more active; k-Seq, kA / k0A0; sequences stand for … in GGGAAUGGAUCCACAUCUACGAAUUC…UUCACUGCAGACUUGACGAAGCUG
Summary of the method: as §1

biotinyl-Met-oxazolone = assay: self-aminoacylation, catalytic enhancement (BMO) (fold over background); higher = more active; k-Seq, kA / k0A0; sequences stand for … in GGGAAUGGAUCCACAUCUACGAAUUC…UUCACUGCAGACUUGACGAAGCUG
Summary of the method: as §1

Sequence | self-aminoacylation (biotinyl-Trp-oxazolone) | self-aminoacylation (biotinyl-Val-oxazolone) | self-aminoacylation (biotinyl-Phe-oxazolone) | self-aminoacylation (biotinyl-Leu-oxazolone) | self-aminoacylation (biotinyl-Ile-oxazolone) | self-aminoacylation (biotinyl-Met-oxazolone)
AUUACCCUGGUCACCUAGUGA [Fam2.1 aminoacylation ribozyme variant] | 5.72 | 2.49 | 25.9 | 4.95 | 2.12 | 4.99
CCAAACUUCUAGCAAUCGGUC [Fam1B.1 aminoacylation ribozyme variant] | 0.667 | 0.952 | 1.01 | 0.733 | 0.961 | 0.839
AAGUUUUCUAAUAGUCACAAG [Fam3.1 aminoacylation ribozyme variant] | 1.87 | 1.64 | 2.39 | 1.4 | 1.64 | 1.25
AAUUUUGUUAAUAGUCGCAAG [Fam3.1 aminoacylation ribozyme variant] | 2.56 | 1.72 | 2.48 | 1.93 | 2.04 | 2.05
CGACACUUCAAGAAAUCGGUC [Fam1B.1 aminoacylation ribozyme variant] | 2.88 | 1.26 | 3.41 | 1.24 | 1.62 | 1.25
AGUACCAUGGUCAUCGAGUGA [Fam2.1 aminoacylation ribozyme variant] | 8.32 | 4.22 | 29.9 | 7.11 | 4.22 | 6.66
CUACUUGAAACAAUCGGUUUG [Fam1A.1 aminoacylation ribozyme variant] | 0.944 | 0.77 | 0.458 | 0.89 | 0.907 | 0.938
UCACAAUUCAAGCAAUCGGUC [Fam1B.1 aminoacylation ribozyme variant] | 1.39 | 0.986 | 1.8 | 0.949 | 1.04 | 0.989
AUUCACCUAGGUCAUCUGCUG [Fam2.2 aminoacylation ribozyme variant] | 0.391 | 0.81 | 2.81 | 0.964 | 0.819 | 0.724
AUUACGCUGGUCAUCCAGUGA [Fam2.1 aminoacylation ribozyme variant] | 4.31 | 1.96 | 12.8 | 3.99 | 2.27 | 3.63
AAGUGUGCUAAUAUUCGCAAG [Fam3.1 aminoacylation ribozyme variant] | 2.22 | 1.53 | 1.63 | 1.51 | 1.92 | 1.58
AUUCGCCUAGCUCAUCGGGUG [Fam2.2 aminoacylation ribozyme variant] | 2.87 | 2.59 | 12.7 | 2.99 | 2.6 | 2.28
CUACUUCAAACAAUCAUUCUG [Fam1A.1 aminoacylation ribozyme variant] | 1.55 | 0.577 | 3.72 | 0.513 | 0.616 | 0.488
AUUCAACUAGGUCUUCGGGUG [Fam2.2 aminoacylation ribozyme variant] | 4.34 | 3.01 | 29.8 | 4.84 | 2.93 | 4.21
AUUCCCCUAGUUCAUCGGGUG [Fam2.2 aminoacylation ribozyme variant] | 10.2 | 6.85 | 56.5 | 10.1 | 6.72 | 7.78
CUACUUCAAUCAUUCGGUCUG [Fam1A.1 aminoacylation ribozyme variant] | 1.13 | 0.992 | 0.652 | 0.896 | 1.1 | 0.805
GUUACCCUGGUCUUCGAGUGA [Fam2.1 aminoacylation ribozyme variant] | 10.1 | 5.01 | 50.7 | 8.79 | 4.45 | 8.47
CUACUACAAACAAACGGUCUG [Fam1A.1 aminoacylation ribozyme variant] | 0.575 | 0.857 | 0.827 | 0.648 | 0.874 | 0.673
AUUACGCUGGUCAUAGAGUGA [Fam2.1 aminoacylation ribozyme variant] | 4.14 | 2.23 | 7.49 | 3.54 | 2.33 | 3.31
CUACUUCAAACAAUCGUUCCG [Fam1A.1 aminoacylation ribozyme variant] | 0.587 | 0.66 | 0.562 | 0.786 | 0.724 | 0.516
AAGUUCGCUAAUAGCCGCAAG [Fam3.1 aminoacylation ribozyme variant] | 1.75 | 1.12 | 1.97 | 1.38 | 1.35 | 1.82
AUACACCUAGGUCAUCGGGUU [Fam2.2 aminoacylation ribozyme variant] | 2.69 | 2.14 | 1.76 | 2.79 | 2.4 | 2.15
CUACUUCAAUCAACCGGUCUG [Fam1A.1 aminoacylation ribozyme variant] | 0.663 | 0.806 | 0.9 | 0.729 | 0.925 | 0.525
CAACACUUCAAGCAAUCCGUC [Fam1B.1 aminoacylation ribozyme variant] | 0.727 | 1.31 | 1.12 | 1.02 | 1.24 | 1.19
CUACUUGAAAGAAUCGGUCUG [Fam1A.1 aminoacylation ribozyme variant] | 0.731 | 0.771 | 0.599 | 0.693 | 0.869 | 0.974
AUUGACCUGGGUCAUCGGGUG [Fam2.2 aminoacylation ribozyme variant] | 24.1 | 13.5 | 107 | 29.6 | 12.2 | 25.9

Sequence | self-aminoacylation (biotinyl-Trp-oxazolone) | self-aminoacylation (biotinyl-Val-oxazolone) | self-aminoacylation (biotinyl-Phe-oxazolone) | self-aminoacylation (biotinyl-Leu-oxazolone) | self-aminoacylation (biotinyl-Ile-oxazolone) | self-aminoacylation (biotinyl-Met-oxazolone)
UUUCACCUAGGUCAUCGAGUG [Fam2.2 aminoacylation ribozyme variant] | 4.82 | 4.45 | 16.4 | 9.37 | 5.72 | 7.16
AAGUUUGCUAAUAGUCUAAAG [Fam3.1 aminoacylation ribozyme variant] | 1.9 | 1.28 | 5.62 | 0.882 | 1.28 | 0.959
CCACACUUCAAGCACUCGGCC [Fam1B.1 aminoacylation ribozyme variant] | 5.51 | 4.04 | 15.9 | 3.19 | 3.06 | 2.89
AUUCACCCAGGGCAUCGGGUG [Fam2.2 aminoacylation ribozyme variant] | 3.92 | 3.72 | 20 | 6.26 | 3.62 | 3.74
CUACUUCACACAAUCGAUCUG [Fam1A.1 aminoacylation ribozyme variant] | 0.691 | 0.677 | 0.726 | 0.784 | 0.888 | 0.686
CCACACUUCAAUCAAGCGGUC [Fam1B.1 aminoacylation ribozyme variant] | 0.769 | 0.811 | 0.972 | 0.694 | 0.709 | 0.634
AUUCACCUUGGUUAUCGGGUG [Fam2.2 aminoacylation ribozyme variant] | 5.27 | 3.85 | 35.2 | 5.92 | 3.26 | 5.13
AAGUUUGCUAAUAGUCGAAAG [Fam3.1 aminoacylation ribozyme variant] | 5.4 | 1.22 | 17.9 | 1.14 | 1.38 | 1.47
CUGCUUCAAACAAUCGGCCUG [Fam1A.1 aminoacylation ribozyme variant] | 162 | 3.35 | 449 | 6.94 | 3.07 | 3.69
AAGUUUGCUAAUAGUCGCAAU [Fam3.1 aminoacylation ribozyme variant] | 1.22 | 1.26 | 1.68 | 1.19 | 1.42 | 1.25
UUACUUCAAACAAUCGGUCUG [Fam1A.1 aminoacylation ribozyme variant] | 20.7 | 1.22 | 37.4 | 1.69 | 1.3 | 1.29
GUGCUUCAAACAAUCGGUCUG [Fam1A.1 aminoacylation ribozyme variant] | 79.6 | 2.39 | 195 | 4.85 | 2.57 | 2.69
AUCACCCUGGUCAUAGAGUGA [Fam2.1 aminoacylation ribozyme variant] | 13.2 | 4.92 | 85.7 | 13.2 | 5.17 | 13.6
AUUCGCCUAGGUCAUCGUGUG [Fam2.2 aminoacylation ribozyme variant] | 0.823 | 1.05 | 3.31 | 1.35 | 1.04 | 1.45
CCACUCUUCAAGCAAUCGGUG [Fam1B.1 aminoacylation ribozyme variant] | 5.05 | 3.46 | 23.1 | 7.12 | 3.43 | 4.76
CUACUUCAAAGAAUCCGUCUG [Fam1A.1 aminoacylation ribozyme variant] | 0.738 | 0.915 | 0.744 | 1.07 | 1.06 | 0.942
CUUGCCCUGGUCAUCGAGUGA [Fam2.1 aminoacylation ribozyme variant] | 16.5 | 7.34 | 64.3 | 14.7 | 6.56 | 15.4
CGACUUCAAACCAUCGGUCUG [Fam1A.1 aminoacylation ribozyme variant] | 0.886 | 1.08 | 0.966 | 0.811 | 0.838 | 0.807
AGUCACCUUGGUCAUCGGGUG [Fam2.2 aminoacylation ribozyme variant] | 5.71 | 4.85 | 49.8 | 6.96 | 4.89 | 5.4
AUUCACCUAAGUCAUCGGAUG [Fam2.2 aminoacylation ribozyme variant] | 0.557 | 0.983 | 0.343 | 0.815 | 0.917 | 0.736
AAGUUUGCUAAGAAUCGCAAG [Fam3.1 aminoacylation ribozyme variant] | 0.588 | 0.58 | 0.824 | 0.521 | 0.583 | 0.503
UUUCACCUAGGUUAUCGGGUG [Fam2.2 aminoacylation ribozyme variant] | 4.62 | 2.93 | 19.6 | 3.72 | 2.92 | 3.71
AUUGACCUAGUUCAUCGGGUG [Fam2.2 aminoacylation ribozyme variant] | 4.08 | 2.59 | 18.6 | 3.62 | 2.62 | 3.19
UUUACCCUGGUCUUCGAGUGA [Fam2.1 aminoacylation ribozyme variant] | 5.27 | 2.79 | 13.9 | 3.58 | 2.46 | 3.61
AUUCACCUAGAUCAUCGCGUG [Fam2.2 aminoacylation ribozyme variant] | 5.99 | 3.69 | 48.1 | 8.58 | 3.85 | 5.82
